# Reference: patent US20180360972A1, “THERAPEUTIC COMPOUNDS” (REGENTS OF THE UNIVERSITY OF MINNESOTA, priority 2017, published 2018)
# Biological target: mMC4R-NanoLuc and mMC4R-HaloTag homodimer (mouse) (UniProt P56450)
# Experiment: cell-based or functional assay
# Sequence of mMC4R-NanoLuc and mMC4R-HaloTag homodimer (mouse) (P56450 whole entry, chain 1 of 2): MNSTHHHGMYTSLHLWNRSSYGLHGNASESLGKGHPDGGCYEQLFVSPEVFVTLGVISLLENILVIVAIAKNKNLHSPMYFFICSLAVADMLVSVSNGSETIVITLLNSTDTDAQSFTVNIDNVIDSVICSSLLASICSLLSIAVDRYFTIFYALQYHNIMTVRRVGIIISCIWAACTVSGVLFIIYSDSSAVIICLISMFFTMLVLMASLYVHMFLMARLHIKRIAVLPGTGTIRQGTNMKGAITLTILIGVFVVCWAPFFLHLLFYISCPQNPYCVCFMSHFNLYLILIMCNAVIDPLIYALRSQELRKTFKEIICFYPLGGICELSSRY
# Sequence of mMC4R-NanoLuc and mMC4R-HaloTag homodimer (mouse) (P56450 whole entry, chain 2 of 2): as the sequence (P56450 whole entry, chain 1 of 2) above
substance,measurement,value
α-MSH (from UniProt P01189 138-150) (ligand),reduction in BRET signal at 10 µM compared to basal signal,15%
